Data on five molecules can be found in paper PMC4725248, “Yeast mitochondrial HMG proteins”.

Data set [1] addresses T1, CpGcf1p (CpGcf1noMP) (Candida parapsilosis CBS604) (UniProt G8BDQ3).
T1 sequence: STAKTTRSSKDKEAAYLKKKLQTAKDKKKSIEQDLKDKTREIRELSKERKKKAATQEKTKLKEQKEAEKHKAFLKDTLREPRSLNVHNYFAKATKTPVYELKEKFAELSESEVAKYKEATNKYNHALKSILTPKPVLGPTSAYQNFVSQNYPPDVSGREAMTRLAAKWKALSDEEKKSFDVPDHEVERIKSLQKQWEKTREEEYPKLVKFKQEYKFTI
Kind of data set: EMSA. The settings on record: EMSA: 20 mM Tris/HCl pH 7.5, 1 mM EDTA, 50 mM NaCl, 100 ug/ml BSA, 3 nM DNA, 10 min 30 C, gel 0.5x TBE 4 C, EM: 20 mM HEPES pH 7.5, 1 mM EDTA, room ….

For data set [2], the target named is T2, ScAbf2p (ScAbf2noMP) (Saccharomyces cerevisiae) (UniProt Q02486).
T2 sequence: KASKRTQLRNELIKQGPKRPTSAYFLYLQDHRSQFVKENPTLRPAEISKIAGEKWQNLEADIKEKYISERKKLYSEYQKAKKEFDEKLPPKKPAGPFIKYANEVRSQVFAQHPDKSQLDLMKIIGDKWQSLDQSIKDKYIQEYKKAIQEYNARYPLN
Kind of data set: EMSA. The settings on record: EMSA: 20 mM Tris/HCl pH 7.5, 1 mM EDTA, 50 mM NaCl, 100 ug/ml BSA, 3 nM DNA, 10 min 30 C, gel 0.5x TBE 4 C, EM: 20 mM HEPES pH 7.5, 1 mM EDTA, room ….

Data set [3] deals with T3, CpGcf1p (CpGcf1noMP) (Candida parapsilosis CBS604, UniProt G8BDQ3 34-251).
T3 sequence: T1 sequence
The data set is described as follows: EMSA. As to conditions: 120 nM protein, EMSA: 20 mM Tris/HCl pH 7.5, 1 mM EDTA, 50 mM NaCl, 100 ug/ml BSA, 3 nM DNA, 10 min 30 C, gel 0.5x TBE 4 C, EM: 20 mM HEPES pH 7.5, 1 mM EDTA, room …. For orientation: A gel shift assay detects complexes by their altered migration in electrophoresis.

Data set [4] relates to YlMhb1p (YlMhb1noMP) (Yarrowia lipolytica). Kind of data set: EMSA. As to conditions: 50% shift, 3 nM probe, EMSA: 20 mM Tris/HCl pH 7.5, 1 mM EDTA, 50 mM NaCl, 100 ug/ml BSA, 3 nM DNA, 10 min 30 C, gel 0.5x TBE 4 C, EM: 20 mM HEPES pH 7.5, 1 mM EDTA, room ….
In data set [5] the target is T4, ScAbf2p (ScAbf2noMP) (Saccharomyces cerevisiae, UniProt Q02486 27-183).
T4 sequence: T2 sequence
Kind of data set: EMSA. As to conditions: 50% shift, 3 nM probe, EMSA: 20 mM Tris/HCl pH 7.5, 1 mM EDTA, 50 mM NaCl, 100 ug/ml BSA, 3 nM DNA, 10 min 30 C, gel 0.5x TBE 4 C, EM: 20 mM HEPES pH 7.5, 1 mM EDTA, room ….

The target in data set [6] is T3, CpGcf1p (CpGcf1noMP). Kind of data set: EMSA; EMSA: 20 mM Tris/HCl pH 7.5, 1 mM EDTA, 50 mM NaCl, 100 ug/ml BSA, 3 nM DNA, 10 min 30 C, gel 0.5x TBE 4 C; EM: 20 mM HEPES pH 7.5, 1 mM EDTA, 50 mM NaCl, room. As to conditions: protein: recombinant, tags: GST removed with PreScission protease (pGEX-6P-2), label: 32P, blunt.
The target of data set [7] is T4, ScAbf2p (ScAbf2noMP). The data set is described as follows: EMSA; almost quantitative shift; EMSA: 20 mM Tris/HCl pH 7.5, 1 mM EDTA, 50 mM NaCl, 100 ug/ml BSA, 3 nM DNA, 10 min 30 C, gel 0.5x TBE 4 C; EM: 20 mM HEPES pH 7.5, 1 mM EDTA, 50 mM NaCl, room. The settings on record: protein: recombinant; tags: GST removed with PreScission protease (pGEX-6P-2); label: 32P, 5' end of S8; blunt.

Data set [8] has as its target T4, ScAbf2p (ScAbf2noMP). The data set is described as follows: EMSA; EMSA: 20 mM Tris/HCl pH 7.5, 1 mM EDTA, 50 mM NaCl, 100 ug/ml BSA, 3 nM DNA, 10 min 30 C, gel 0.5x TBE 4 C; EM: 20 mM HEPES pH 7.5, 1 mM EDTA, 50 mM NaCl, room. As to conditions: protein: recombinant; tags: GST removed with PreScission protease (pGEX-6P-2); label: 32P, 5' end of S6; blunt.

Turning to “ACACCATTAATTAAAGCTGCGAATACGATAGCAATACCAATACCTGCTCC (double strand) [50 bp atp9 dsDNA]”, the binding entry in data set [1] and in data set [2] was “binds” each time.

Consider Holliday junction (HJ), for which, in the data set with CpGcf1p (CpGcf1noMP) [3], the binding signal (fold higher than 3' Flap) was 8.

As for fluorescent dsDNA, the K half in data set [4] worked out at 120 nM; in the data set with ScAbf2p (ScAbf2noMP) [5] it was 30 nM.

B1: 25 bp atp9 dsDNA (dsDNA)
DNA 1: GGAGCAGGTATTGGTATTGCTATCG
DNA 2: CGATAGCAATACCAATACCTGCTCC
For the molecule B1, the binding result with CpGcf1p (CpGcf1noMP) [6] (5' end of S8) is reported as “no binding”; with ScAbf2p (ScAbf2noMP) [7], “binds”.

B2: 15 bp atp9 dsDNA (dsDNA)
DNA 1: GGAGCAGGTATTGGT
DNA 2: ACCAATACCTGCTCC
On to B2, for which the binding result with CpGcf1p (CpGcf1noMP) [6] (5' end of S6) and with ScAbf2p (ScAbf2noMP) [8] was “no binding” throughout.
